The text below walks through data of patent publication US20120165503A1 (Merck Sharp & Dohme, published 2012).

*1 amine or outer side, *2 acyl side, *3 side chain or, on linkers, in order; H or OH if unused. Where no end group is shown, it is not given here. Side-chain parts run from the residue outwards. [ ]: non-standard residue; d: D form. The star is where a group is joined. d(γGlu) = O=C(O)[C@@H](CCC(=O)[*:2])N[*:1]; γGlu = O=C(O)[C@H](CCC(=O)[*:2])N[*:1]; Stearoyl = CCCCCCCCCCCCCCCCCC(=O)*; Palmitoyl = CCCCCCCCCCCCCCCC(=O)*; Myristoyl = CCCCCCCCCCCCCC(=O)*; Aib = CC(C)(N)C(=O)O

Holding throughout (test): cell-based or functional assay
Assay [1] has as its target T1, human GLP-1 receptor (human, UniProt P43220 24-463).
For assay [2], the target named is T2, human glucagon receptor (human, UniProt P47871 26-477).
For assay [3], the target named is T1, human GLP-1 receptor. The source holds these as a separate data set.
The target in assay [4] is T2, human glucagon receptor. The source holds these as a separate data set.

T2 sequence (P47871 26-477): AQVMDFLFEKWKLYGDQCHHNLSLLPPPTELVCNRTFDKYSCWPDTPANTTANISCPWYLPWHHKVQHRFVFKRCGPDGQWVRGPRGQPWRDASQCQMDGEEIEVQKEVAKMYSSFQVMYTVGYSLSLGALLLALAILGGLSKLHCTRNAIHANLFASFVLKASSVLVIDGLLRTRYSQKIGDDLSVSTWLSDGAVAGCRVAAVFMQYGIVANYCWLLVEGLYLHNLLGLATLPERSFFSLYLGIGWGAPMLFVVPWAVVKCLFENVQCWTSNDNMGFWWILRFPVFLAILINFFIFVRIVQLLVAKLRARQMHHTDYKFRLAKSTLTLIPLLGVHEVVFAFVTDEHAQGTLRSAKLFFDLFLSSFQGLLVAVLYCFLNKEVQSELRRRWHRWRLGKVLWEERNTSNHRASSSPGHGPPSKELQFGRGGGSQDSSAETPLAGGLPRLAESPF

B1: MM121 (peptide)
peptide: H[dS]QGTFTSDK([γGlu-γGlu-Myristoyl])SKYLD[Aib]RRAQDFVQWLMNTK[γGlu]-NH2
modifications: N-terminus assumed
SMILES: CCCCCCCCCCCCCC(=O)N[C@@H](CCC(=O)N[C@@H](CCC(=O)NCCCC[C@H](NC(=O)[C@H](CC(=O)O)NC(=O)[C@H](CO)NC(=O)[C@@H](NC(=O)[C@H](Cc1ccccc1)NC(=O)[C@@H](NC(=O)CNC(=O)[C@H](CCC(N)=O)NC(=O)[C@@H](CO)NC(=O)[C@@H](N)Cc1c[nH]cn1)[C@@H](C)O)[C@@H](C)O)C(=O)N[C@@H](CO)C(=O)N[C@@H](CCCCN)C(=O)N[C@@H](Cc1ccc(O)cc1)C(=O)N[C@@H](CC(C)C)C(=O)N[C@@H](CC(=O)O)C(=O)NC(C)(C)C(=O)N[C@@H](CCCNC(=N)N)C(=O)N[C@@H](CCCNC(=N)N)C(=O)N[C@@H](C)C(=O)N[C@@H](CCC(N)=O)C(=O)N[C@@H](CC(=O)O)C(=O)N[C@@H](Cc1ccccc1)C(=O)N[C@H](C(=O)N[C@@H](CCC(N)=O)C(=O)N[C@@H](Cc1c[nH]c2ccccc12)C(=O)N[C@@H](CC(C)C)C(=O)N[C@@H](CCSC)C(=O)N[C@@H](CC(N)=O)C(=O)N[C@H](C(=O)N[C@@H](CCCCN)C(=O)N[C@@H](CCC(N)=O)C(=O)O)[C@@H](C)O)C(C)C)C(=O)O)C(=O)O
As to B1, the “hGLP-1R EC50” value with human GLP-1 receptor [1] came out at 131 pM. Besides, the “hGCGR EC50” value in the assay with human glucagon receptor [2] came out at 6 pM.

Regarding H[dS]QGTFTSDK([dE-dE-Palmitoyl])SKYLDERRAQDFVQWLMNTK[γGlu]-NH2 [MM117], in the assay with human GLP-1 receptor [1], the “hGLP-1R EC50” value came out at 930 pM. Besides, the “hGCGR EC50” value in the assay with human glucagon receptor [2] is 250 pM.

B2: MM115 (peptide)
peptide: H[dS]QGTFTSDK([Arg-Arg-Palmitoyl])SKYLDERRAQDFVQWLMNTK[γGlu]-NH2
modifications: N-terminus assumed
SMILES: CCCCCCCCCCCCCCCC(=O)N[C@@H](CCCNC(=N)N)C(=O)N[C@@H](CCCNC(=N)N)C(=O)NCCCC[C@H](NC(=O)[C@H](CC(=O)O)NC(=O)[C@H](CO)NC(=O)[C@@H](NC(=O)[C@H](Cc1ccccc1)NC(=O)[C@@H](NC(=O)CNC(=O)[C@H](CCC(N)=O)NC(=O)[C@@H](CO)NC(=O)[C@@H](N)Cc1c[nH]cn1)[C@@H](C)O)[C@@H](C)O)C(=O)N[C@@H](CO)C(=O)N[C@@H](CCCCN)C(=O)N[C@@H](Cc1ccc(O)cc1)C(=O)N[C@@H](CC(C)C)C(=O)N[C@@H](CC(=O)O)C(=O)N[C@@H](CCC(=O)O)C(=O)N[C@@H](CCCNC(=N)N)C(=O)N[C@@H](CCCNC(=N)N)C(=O)N[C@@H](C)C(=O)N[C@@H](CCC(N)=O)C(=O)N[C@@H](CC(=O)O)C(=O)N[C@@H](Cc1ccccc1)C(=O)N[C@H](C(=O)N[C@@H](CCC(N)=O)C(=O)N[C@@H](Cc1c[nH]c2ccccc12)C(=O)N[C@@H](CC(C)C)C(=O)N[C@@H](CCSC)C(=O)N[C@@H](CC(N)=O)C(=O)N[C@H](C(=O)N[C@@H](CCCCN)C(=O)N[C@@H](CCC(N)=O)C(=O)O)[C@@H](C)O)C(C)C
For B2, the “hGLP-1R EC50” value with human GLP-1 receptor [1] was found to be 1080 pM. Further, the “hGCGR EC50” value with human glucagon receptor [2] worked out at 1310 pM.

B3: MM113 (peptide)
peptide: H[dS]QGTFTSDK([γGlu-γGlu-Palmitoyl])SKYLD[Aib]RRAQDFVQWLMNTE[d(γGlu)]-NH2
modifications: N-terminus assumed
SMILES: CCCCCCCCCCCCCCCC(=O)N[C@@H](CCC(=O)N[C@@H](CCC(=O)NCCCC[C@H](NC(=O)[C@H](CC(=O)O)NC(=O)[C@H](CO)NC(=O)[C@@H](NC(=O)[C@H](Cc1ccccc1)NC(=O)[C@@H](NC(=O)CNC(=O)[C@H](CCC(N)=O)NC(=O)[C@@H](CO)NC(=O)[C@@H](N)Cc1c[nH]cn1)[C@@H](C)O)[C@@H](C)O)C(=O)N[C@@H](CO)C(=O)N[C@@H](CCCCN)C(=O)N[C@@H](Cc1ccc(O)cc1)C(=O)N[C@@H](CC(C)C)C(=O)N[C@@H](CC(=O)O)C(=O)NC(C)(C)C(=O)N[C@@H](CCCNC(=N)N)C(=O)N[C@@H](CCCNC(=N)N)C(=O)N[C@@H](C)C(=O)N[C@@H](CCC(N)=O)C(=O)N[C@@H](CC(=O)O)C(=O)N[C@@H](Cc1ccccc1)C(=O)N[C@H](C(=O)N[C@@H](CCC(N)=O)C(=O)N[C@@H](Cc1c[nH]c2ccccc12)C(=O)N[C@@H](CC(C)C)C(=O)N[C@@H](CCSC)C(=O)N[C@@H](CC(N)=O)C(=O)N[C@H](C(=O)N[C@@H](CCC(=O)O)C(=O)N[C@H](CCC(N)=O)C(=O)O)[C@@H](C)O)C(C)C)C(=O)O)C(=O)O
As to B3, the “hGLP-1R EC50” value in the assay with human GLP-1 receptor [1] was 23 pM. For the same molecule, the “hGCGR EC50” value with human glucagon receptor [2] was found to be 6 pM.

B4: OXM414 (peptide)
peptide: H[dS]QGTFTSDK([γGlu-Palmitoyl])SKYLDERRAQDFVQWLMNTK[γGlu]-NH2
modifications: N-terminus assumed
SMILES: CCCCCCCCCCCCCCCC(=O)N[C@@H](CCC(=O)NCCCC[C@H](NC(=O)[C@H](CC(=O)O)NC(=O)[C@H](CO)NC(=O)[C@@H](NC(=O)[C@H](Cc1ccccc1)NC(=O)[C@@H](NC(=O)CNC(=O)[C@H](CCC(N)=O)NC(=O)[C@@H](CO)NC(=O)[C@@H](N)Cc1c[nH]cn1)[C@@H](C)O)[C@@H](C)O)C(=O)N[C@@H](CO)C(=O)N[C@@H](CCCCN)C(=O)N[C@@H](Cc1ccc(O)cc1)C(=O)N[C@@H](CC(C)C)C(=O)N[C@@H](CC(=O)O)C(=O)N[C@@H](CCC(=O)O)C(=O)N[C@@H](CCCNC(=N)N)C(=O)N[C@@H](CCCNC(=N)N)C(=O)N[C@@H](C)C(=O)N[C@@H](CCC(N)=O)C(=O)N[C@@H](CC(=O)O)C(=O)N[C@@H](Cc1ccccc1)C(=O)N[C@H](C(=O)N[C@@H](CCC(N)=O)C(=O)N[C@@H](Cc1c[nH]c2ccccc12)C(=O)N[C@@H](CC(C)C)C(=O)N[C@@H](CCSC)C(=O)N[C@@H](CC(N)=O)C(=O)N[C@H](C(=O)N[C@@H](CCCCN)C(=O)N[C@@H](CCC(N)=O)C(=O)O)[C@@H](C)O)C(C)C)C(=O)O
B4: in the assay with human GLP-1 receptor [3], the “hGLP-1R + 20% Plasma EC50” value is 70 pM. Moreover, in the assay with human glucagon receptor [4], the “hGCGR + 20% plasma EC50” value amounted to 150 pM. Also, the “hGLP-1R EC50” value in the assay with human GLP-1 receptor [1] worked out at 7 pM. For the same molecule, the “hGCGR EC50” value in the assay with human glucagon receptor [2] worked out at 5 pM.

B5: MM132 (peptide)
peptide: H[dS]QGTFTSDK([γGlu-γGlu-Stearoyl])SKYLD[Aib]RRAQDFVQWLMNTK[γGlu]-NH2
modifications: N-terminus assumed
SMILES: CCCCCCCCCCCCCCCCCC(=O)N[C@@H](CCC(=O)N[C@@H](CCC(=O)NCCCC[C@H](NC(=O)[C@H](CC(=O)O)NC(=O)[C@H](CO)NC(=O)[C@@H](NC(=O)[C@H](Cc1ccccc1)NC(=O)[C@@H](NC(=O)CNC(=O)[C@H](CCC(N)=O)NC(=O)[C@@H](CO)NC(=O)[C@@H](N)Cc1c[nH]cn1)[C@@H](C)O)[C@@H](C)O)C(=O)N[C@@H](CO)C(=O)N[C@@H](CCCCN)C(=O)N[C@@H](Cc1ccc(O)cc1)C(=O)N[C@@H](CC(C)C)C(=O)N[C@@H](CC(=O)O)C(=O)NC(C)(C)C(=O)N[C@@H](CCCNC(=N)N)C(=O)N[C@@H](CCCNC(=N)N)C(=O)N[C@@H](C)C(=O)N[C@@H](CCC(N)=O)C(=O)N[C@@H](CC(=O)O)C(=O)N[C@@H](Cc1ccccc1)C(=O)N[C@H](C(=O)N[C@@H](CCC(N)=O)C(=O)N[C@@H](Cc1c[nH]c2ccccc12)C(=O)N[C@@H](CC(C)C)C(=O)N[C@@H](CCSC)C(=O)N[C@@H](CC(N)=O)C(=O)N[C@H](C(=O)N[C@@H](CCCCN)C(=O)N[C@@H](CCC(N)=O)C(=O)O)[C@@H](C)O)C(C)C)C(=O)O)C(=O)O
With B5, the “hGLP-1R EC50” value in the assay with human GLP-1 receptor [1] was determined as 24 pM. In the assay with human glucagon receptor [2], the “hGCGR EC50” value was found to be 4 pM.

Consider H[dS]QGTFTSDK([homocysteic acid-homocysteic acid-Palmitoyl])SKYLDERRAQDFVQWLMNTK[γGlu]-NH2 [MM116], for which the “hGLP-1R EC50” value with human GLP-1 receptor [1] is 132 pM. In addition, the “hGCGR EC50” value in the assay with human glucagon receptor [2] was 850 pM.

B6: MM127 (peptide)
peptide: H[dS]QGTFTSDK([γGlu-γGlu-Palmitoyl])SKYLD[Aib]RAAQDFVQWLMDTK[γGlu]-NH2
modifications: N-terminus assumed
SMILES: CCCCCCCCCCCCCCCC(=O)N[C@@H](CCC(=O)N[C@@H](CCC(=O)NCCCC[C@H](NC(=O)[C@H](CC(=O)O)NC(=O)[C@H](CO)NC(=O)[C@@H](NC(=O)[C@H](Cc1ccccc1)NC(=O)[C@@H](NC(=O)CNC(=O)[C@H](CCC(N)=O)NC(=O)[C@@H](CO)NC(=O)[C@@H](N)Cc1c[nH]cn1)[C@@H](C)O)[C@@H](C)O)C(=O)N[C@@H](CO)C(=O)N[C@@H](CCCCN)C(=O)N[C@@H](Cc1ccc(O)cc1)C(=O)N[C@@H](CC(C)C)C(=O)N[C@@H](CC(=O)O)C(=O)NC(C)(C)C(=O)N[C@@H](CCCNC(=N)N)C(=O)N[C@@H](C)C(=O)N[C@@H](C)C(=O)N[C@@H](CCC(N)=O)C(=O)N[C@@H](CC(=O)O)C(=O)N[C@@H](Cc1ccccc1)C(=O)N[C@H](C(=O)N[C@@H](CCC(N)=O)C(=O)N[C@@H](Cc1c[nH]c2ccccc12)C(=O)N[C@@H](CC(C)C)C(=O)N[C@@H](CCSC)C(=O)N[C@@H](CC(=O)O)C(=O)N[C@H](C(=O)N[C@@H](CCCCN)C(=O)N[C@@H](CCC(N)=O)C(=O)O)[C@@H](C)O)C(C)C)C(=O)O)C(=O)O
In the case of B6, in the assay with human GLP-1 receptor [1], the “hGLP-1R EC50” value stood at 4 pM. For the same molecule, the “hGCGR EC50” value with human glucagon receptor [2] is 4 pM.
